Experimental data reported in publication PMC3326319.

Legend:
PhNob1 = target: T1, PhNob1 (Pyrococcus horikoshii, UniProt O58440 1-161); test: fluorescence anisotropy
T1 sequence: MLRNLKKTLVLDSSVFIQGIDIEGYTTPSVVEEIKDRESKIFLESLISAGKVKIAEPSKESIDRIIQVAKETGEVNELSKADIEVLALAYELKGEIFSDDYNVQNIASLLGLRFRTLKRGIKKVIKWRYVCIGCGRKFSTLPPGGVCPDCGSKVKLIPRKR

PhNob1Zn [1] = target: T2, PhNob1Zn (Pyrococcus horikoshii, UniProt O58440 121-161); test: fluorescence anisotropy
T2 chain: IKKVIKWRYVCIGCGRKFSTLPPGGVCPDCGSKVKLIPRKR

PhNob1Zn [2] = target: T2, PhNob1Zn; test: NMR titration

B1: PhH40 (helix 40) (structured_RNA)
RNA: GACUGCCGGCGAUAAGCCGGAGGAAG
Question: What does the source list for B1?
Answer: Kd (PhNob1): 2000 ± 100 nM; Kd (PhNob1Zn [1]): 2300 ± 100 nM

B2: PhH40short (H40S) (structured_RNA)
RNA: CCGGCGAUAAGCCGG
Question: B2 was tested. Which Kd (PhNob1Zn [1]) did it give?
Answer: 3100 ± 200 nM

B3: ScH16 (stabilized) (structured_RNA)
RNA: UACAGGGCCCAUUGGGGCCCUGUA
Question: How did the Kd (PhNob1Zn [1]) turn out when B3 was run?
Answer: 1500 ± 200 nM

B4: PhH40 unlabeled (gel filtration, NMR) (structured_RNA)
RNA: GACUGCCGGCGAUAAGCCGGAGGAAG
Question: For B4, which Kd (PhNob1Zn [2]) is on record?
Answer: < 1000 nM
